Consider eight molecules from PMC5389708 (Nucleic Acids Research, 2017).

The target in data set [1] is chimpanzee APOBEC3C S188I (chimpanzee). The experiment in a line: cross-linking.
Data set [2] deals with chimpanzee APOBEC3C (chimpanzee). The experiment in a line: SEC. On the technique in general: SEC sorts molecules by how far they enter the pores of the column.
Data set [3] has the same target. The data set is described as follows: cross-linking.
Data set [4] concerns the molecule itself. The experiment in a line: cross-linking.
Data set [5] deals with the molecule itself. The data set is described as follows: SEC.

The term stoichiometry N denotes the number of molecules, sites or subunits per partner or assembly. Molecule chimpanzee APOBEC3C S188I (enzyme) registered a stoichiometry N in data set [1] of 2.

chimpanzee APOBEC3C (enzyme): the stoichiometry N in data set [2] and in data set [3] was 2 in each case.

B1: gorilla APOBEC3C (enzyme)
chain: MNPQIRNPMKAMYPGTFYFQFKNLWEANDRNETWLCFTVEGIKRRSVVSWKTGVFRNQVDSETHCHAERCFLSWFCDDILSPNTNYQVTWYTSWSPCPECAGEVAEFLARHSNVKLTIFTARLYYFQYPCYQVGLRSLSQEGVAVEIMDYEDFKYCWENFVYNDNEPFKPWKGLKTNFRLLKRRLRESLQ
B1: the “stoichiometry N” value in data set [4] is 2.

B2: gorilla APOBEC3C K115N (enzyme)
chain: MNPQIRNPMKAMYPGTFYFQFKNLWEANDRNETWLCFTVEGIKRRSVVSWKTGVFRNQVDSETHCHAERCFLSWFCDDILSPNTNYQVTWYTSWSPCPECAGEVAEFLARHSNVNLTIFTARLYYFQYPCYQVGLRSLSQEGVAVEIMDYEDFKYCWENFVYNDNEPFKPWKGLKTNFRLLKRRLRESLQ
Turning to B2, in data set [4], the “stoichiometry N” value was 2.

B3: gorilla APOBEC3C S188I (enzyme)
chain: MNPQIRNPMKAMYPGTFYFQFKNLWEANDRNETWLCFTVEGIKRRSVVSWKTGVFRNQVDSETHCHAERCFLSWFCDDILSPNTNYQVTWYTSWSPCPECAGEVAEFLARHSNVKLTIFTARLYYFQYPCYQVGLRSLSQEGVAVEIMDYEDFKYCWENFVYNDNEPFKPWKGLKTNFRLLKRRLREILQ
Turning to B3, the “stoichiometry N” value in data set [4] is 2.

B4: human APOBEC3C S188I/N115K (enzyme)
chain: MNPQIRNPMKAMYPGTFYFQFKNLWEANDRNETWLCFTVEGIKRRSVVSWKTGVFRNQVDSETHCHAERCFLSWFCDDILSPNTKYQVTWYTSWSPCPDCAGEVAEFLARHSNVKLTIFTARLYYFQYPCYQEGLRSLSQEGVAVEIMDYEDFKYCWENFVYNDNEPFKPWKGLKTNFRLLKRRLREILQ
As to B4, in data set [4], the “stoichiometry N” value was 2.

B5: human APOBEC3C N115K (enzyme)
chain: MNPQIRNPMKAMYPGTFYFQFKNLWEANDRNETWLCFTVEGIKRRSVVSWKTGVFRNQVDSETHCHAERCFLSWFCDDILSPNTKYQVTWYTSWSPCPDCAGEVAEFLARHSNVKLTIFTARLYYFQYPCYQEGLRSLSQEGVAVEIMDYEDFKYCWENFVYNDNEPFKPWKGLKTNFRLLKRRLRESLQ
With B5, the “stoichiometry N” value in data set [5] was 2.

B6: human APOBEC3C S188I (enzyme)
chain: MNPQIRNPMKAMYPGTFYFQFKNLWEANDRNETWLCFTVEGIKRRSVVSWKTGVFRNQVDSETHCHAERCFLSWFCDDILSPNTKYQVTWYTSWSPCPDCAGEVAEFLARHSNVNLTIFTARLYYFQYPCYQEGLRSLSQEGVAVEIMDYEDFKYCWENFVYNDNEPFKPWKGLKTNFRLLKRRLREILQ
For the molecule B6, the “stoichiometry N” value in data set [4] came out at 2.
